Data as given in patent US20030119023.

What was measured:
Assay in all cases: EMSA
[1] = target: ZIF-flex-GAC (linker TG(GSG)5ERP) (artificial) (UniProt P08046); conditions: all sites approximately 50 pM
[2] = target: ZIF-F4-GAC (TFIIIA finger 4 linker) (artificial) (UniProt P08046); conditions: apparent Kd
[3] = tested on: ZIF-ZnF-GAC (serine-finger linker) (artificial); conditions: apparent Kd
[4] = target: ZIF-F4mut-GAC (ZIF-mutF4-GAC; TFIIIA finger 4 flanked by GERP linkers) (artificial) (UniProt P08046); conditions: apparent Kd
[5] = target: ZIF-mutZnF-GAC (serine finger flanked by NIKICV and TQQLP) (artificial) (UniProt P08046)
[6] = target: TF(1-3)-flex-ZIF (linker TG(GSG)5ERP) (artificial) (UniProt P03001+P08046); conditions: apparent Kd
[7] = tested on: 3x2F ZGS (artificial); conditions: apparent Kd; half-site; hard to quantify
[8] = tested on: TF(1-4)-ZIF (TFIIIA F1-4 fused to Zif268) (artificial); conditions: apparent Kd; half-site
[9] = tested on: 2x3F ZIF-GAC (artificial); conditions: apparent Kd; half-site

3x2F ZGS (artificial), sequence (chain, as listed by the source): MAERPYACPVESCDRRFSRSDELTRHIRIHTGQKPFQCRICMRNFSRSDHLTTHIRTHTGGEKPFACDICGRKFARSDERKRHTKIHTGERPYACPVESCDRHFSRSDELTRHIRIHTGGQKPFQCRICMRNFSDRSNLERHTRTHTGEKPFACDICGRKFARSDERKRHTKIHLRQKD

Sequence	Kd [1]	Kd [2]	Kd [3]	further results
GCGGACGCGGCGTGGGCG (double strand) [bsC (123456, ZM)]	0.05 nM	11 pM	–	–
GCGGACGCGNGCGTGGGCG (double strand) [Z1M]	0.05 nM	6 pM	4 pM	–
GCGGACGCGNNGCGTGGGCG (double strand) [Z2M]	0.05 nM	7 pM	6 pM	–
GCGGACGCGNNNGCGTGGGCG (double strand) [Z3M]	0.05 nM	5 pM	4 pM	–
GCGGACGCGNNNNGCGTGGGCG (double strand) [Z4M]	0.05 nM	13 pM	3 pM	–
GCGGACGCGNNNNNGCGTGGGCG (double strand) [Z5M]	0.05 nM	16 pM	8 pM	Kd [4]: 0.013 nM; Kd [5]: 0.018 nM
GCGGACGCGNNNNNNGCGTGGGCG (double strand) [Z6M]	0.05 nM	17 pM	7 pM	Kd [4]: 0.013 nM; Kd [5]: 0.011 nM
GCGGACGCGNNNNNNNGCGTGGGCG (double strand) [Z7M]	0.05 nM	5 pM	3 pM	–
GCGGACGCGNNNNNNNNGCGTGGGCG (double strand) [Z8M]	0.05 nM	5 pM	6 pM	–
GCGGACGCGNNNNNNNNNGCGTGGGCG (double strand) [Z9M]	0.05 nM	5 pM	4 pM	–
GCGGACGCGNNNNNNNNNNGCGTGGGCG (double strand) [Z10M]	0.05 nM	4 pM	3 pM	–
GCGTGGGCG (double strand) [bsA (ZIF site)]	–	–	–	Kd ([3]; half-site): 2000 pM; Kd ([6]; half-site): 1.8 nM; Kd [7]: 110 nM; Kd [8]: 2 nM; Kd ([2]; half-site): 2200 pM; Kd [9]: 2.2 nM
GCGTGGGCGAGTACCTGGATGGGAGAC (double strand) [TF7Z (bsC1)]	–	–	–	Kd [6]: 0.057 nM
GCGTGGGCGGTACCTGGATGGGAGAC (double strand) [TF6Z (bsB1)]	–	–	–	Kd [6]: 0.068 nM
GCGTGGGCGTACCTGGATGGGAGAC (double strand) [TF5Z (bsA1)]	–	–	–	Kd [6]: 0.063 nM
GCGTGGGCGTAGTACCTGGATGGGAGAC (double strand) [TF8Z (bsD1)]	–	–	–	Kd [6]: 0.061 nM
GCGTGGGCGTTAGTACCTGGATGGGAGAC (double strand) [TF9Z (bsE1)]	–	–	–	Kd [6]: 0.058 nM
